Earlier results, collected in article PMC9313270.

Target: leptin (UniProt P41159)
Assay: not stated (listed for the qPCR aptasensor, 'This work')
Details: leptin binding buffer (composition not given); aptamer-adaptor annealing 15 min at 37 C, leptin incubation 30 min at 37 C, polymerase extension 10 min at 60 C …

Sequence of leptin (P41159 22-167): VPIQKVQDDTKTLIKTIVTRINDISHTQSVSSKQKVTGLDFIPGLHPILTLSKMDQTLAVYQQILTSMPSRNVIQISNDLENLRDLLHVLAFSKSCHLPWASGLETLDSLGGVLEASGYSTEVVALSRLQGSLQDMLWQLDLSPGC

GTTAATGGGGGATCTCGCGGCCGTTCTTGTTGCTTATACA [leptin aptamer (Ashley and Li)]
Kd: 1.5 µM
